Substrate in this data set: CCCC(=O)Oc1ccc([N+](=O)[O-])cc1
Nature of the data set: spectrophotometric p-nitrophenol release. The format is biochemical, Beauveria bassiana. Particulars: 25 mM phosphate buffer pH 6.0, 50°C, 2 min, free enzyme, 0.05% Triton X-100 in the general assay, Hill coefficient n printed 1.46. The text has this: spectrophotometric p-nitrophenol release on BbLA (Beauveria bassiana lipase A)

B1: BbLA (Beauveria bassiana lipase A) (Beauveria bassiana ARSEF 2860) (protein)
chain: LSADIDGAPLIHLDYATYRGSRVAGAGVDQFLGMRFAKPPLGDLRFRAPEEPFHEDQVQDATKLGALCVGTVDGSGVSPNDVFGEDCLFANLFKPANATTASKLPVWVFIQGGGYAHNSNGNYNGTQIVQQSGGNVVFVSFNYRVGVLGFLASEEVRKDGALNAGLLDQRLFLKWVQKYIGQFGGDPNHVVIHGDSAGGGSVSHHLTAYGGNDKENLFVGGIPESPFWPTQRKVDQMEFQYTRLLRDTKCDSLDCLRKLDVGALGNASQPSPFPEAHTEDPAPLWYWLPVIDGDLVQDNMYKQFLTGRFKRVPLLVGADTDEGTLFAVNASTETEVSSFLRANYPRLQEWQLDIVSTIYPKMKPLPKHAAYFPSAAAVYGDSTFVCAGNTMSDAISAFVGPDKLWNYRYNVADPEQVAEGFGVPHVSELGAIFGPDNIRGHEAKSLRTTNAPIVPVTMAYFTSFVRFLDPNTSRQPGSPLWQNWGAFVGEQGQRMRLETNNTAMETVPFDLVTKCALWKLLAESMDV
notes: 19-residue signal peptide removed (precursor 546 aa, 1,641 bp); alpha-factor secretion signal, C-terminal 6His (554 aa printed; b43 says N-terminal His); secreted by Komagataella pastoris GS115, N-glycosylated, about 78 kDa (60 kDa after EndoHf); Octyl-sepharose purified
Turning to B1, the Km (usually the substrate concentration at which the rate is half of its maximum) is 0.5546 µM.

Source of the values: paper PMC4595793, “Beauveria bassiana Lipase A expressed in Komagataella (Pichia) pastoris with potential for biodiesel catalysis” (Frontiers in Microbiology, 2015).
